Article PMC2330087, “Mechanistic Insights into a Novel Exporter-Importer System of Mycobacterium tuberculosis Unravel Its Role in Trafficking of Iron” (PLoS ONE, 2008)

Legend:
[1] = target: IrtB-Rv2895c two-component system (rIrtB in LP-49 liposomes with rRv2895c) (Mycobacterium tuberculosis, UniProt P9WL31+P9WQJ7)
[2] = target: the molecule itself; test: SEC + other: circular dichroism

Sequence of IrtB-Rv2895c two-component system (rIrtB in LP-49 liposomes with rRv2895c) (P9WL31 whole entry, one chain of several): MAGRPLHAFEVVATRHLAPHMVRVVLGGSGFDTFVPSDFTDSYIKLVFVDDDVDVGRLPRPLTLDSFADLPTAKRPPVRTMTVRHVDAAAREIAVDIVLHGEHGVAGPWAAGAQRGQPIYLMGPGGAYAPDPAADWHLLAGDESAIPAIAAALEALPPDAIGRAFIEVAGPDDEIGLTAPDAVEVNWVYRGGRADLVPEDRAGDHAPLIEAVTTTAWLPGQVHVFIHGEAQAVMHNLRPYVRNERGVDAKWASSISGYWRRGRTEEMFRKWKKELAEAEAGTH

**Q.** For `Nc1ncnc2c1ncn2[C@@H]1O[C@H](COP(=O)(O)OP(=O)(O)OP(=O)(O)O)[C@@H](O)[C@H]1O` [ATP], which “inorganic phosphate release in proteoliposomes” value [1] is on record?
**A.** The increase in ATPase activity of (a) LP-49 liposomes after incubation with Fe-cMyco bound rRv2895c

B1: rIrtB (recombinant purified IrtB, Rv1349) (natural protein)
chain: MIRTWIALVPNDHRARLIGFALLAFCSVVARAVGTVLLVPLMAALFGEAPQRAWLWLGWLSAATVAGWVLDAVTARIGIELGFAVLNHTQHDVADRLPVVRLDWFTAENTATARQAIAATGPELVGLVVNLVTPLTSAILLPAVIALALLPISWQLGVAALAGVPLLLGALWASAAFARRADTAADKANTALTERIIEFARTQQALRAARRVEPARSLVGNALASQHTATMRLLGMQIPGQLLFSIASQLALIVLAGTTAALTITGTLTVPEAIALIVVMVRYLEPFTAVSELAPALESTRATLGRIGSVLTAPVMVAGSGTWRDGAVVPRIEFDDVAFGYDGGSGPVLDGVSFCLQPGTTTAIVGPSGCGKSTILALIAGLHQPTRGRVLIDGTDVATLDARAQQAVCSVVFQHPYLFHGTIRDNVFAADPGASDDQFAQAVRLARVDELIARLPDGANTIVGEAGSALSGGERQRVSIARALLKAAPVLLVDEATSALDAENEAAVVDALAADPRSRTRVIVAHRLASIRHADRVLFVDDGRVVEDGSISELLTAGGRFSQFWRQQHEAAEWQILAE
notes: also called p28-IrtB
**Q.** Does B1 bind [2]?
**A.** binds

B2: rIrtA (recombinant purified IrtA, Rv1348) (natural protein)
chain: MARGLQGVMLRSFGARDHTATVIETISIAPHFVRVRMVSPTLFQDAEAEPAAWLRFWFPDPNGSNTEFQRAYTISEADPAAGRFAVDVVLHDPAGPASSWARTVKPGATIAVMSLMGSSRFDVPEEQPAGYLLIGDSASIPGMNGIIETVPNDVPIEMYLEQHDDNDTLIPLAKHPRLRVRWVMRRDEKSLAEAIENRDWSDWYAWATPEAAALKCVRVRLRDEFGFPKSEIHAQAYWNAGRAMGTHRATEPAATEPEVGAAPQPESAVPAPARGSWRAQAASRLLAPLKLPLVLSGVLAALVTLAQLAPFVLLVELSRLLVSGAGAHRLFTVGFAAVGLLGTGALLAAALTLWLHVIDARFARALRLRLLSKLSRLPLGWFTSRGSGSIKKLVTDDTLALHYLVTHAVPDAVAAVVAPVGVLVYLFVVDWRVALVLFGPVLVYLTITSSLTIQSGPRIVQAQRWAEKMNGEAGSYLEGQPVIRVFGAASSSFRRRLDEYIGFLVAWQRPLAGKKTLMDLATRPATFLWLIAATGTLLVATHRMDPVNLLPFMFLGTTFGARLLGIAYGLGGLRTGLLAARHLQVTLDETELAVREHPREPLDGEAPATVVFDHVTFGYRPGVPVIQDVSLTLRPGTVTALVGPSGSGKSTLATLLARFHDVERGAIRVGGQDIRSLAADELYTRVGFVLQEAQLVHGTAAENIALAVPDAPAEQVQVAAREAQIHDRVLRLPDGYDTVLGANSGLSGGERQRLTIARAILGDTPVLILDEATAFADPESEYLVQQALNRLTRDRTVLVIAHRLHTITRADQIVVLDHGRIVERGTHEELLAAGGRYCRLWDTGQGSRVAVAAAQDGTR
notes: also called p23-IrtA
**Q.** Does B2 bind [2]?
**A.** binds
